From article PMC8965080 (Frontiers in Microbiology, 2022)
Blank lines part the entries; values can stand above or below the molecule they belong to.

Assays:
[1] = target: Fdh3A, formate dehydrogenase large (catalytic) subunit (TON_0539) of Thermococcus onnurineus NA1, with N-terminal 6X-His tag (Thermococcus onnurineus NA1); assay: affinity purification with mass spectrometry; lysate of strain MF01 on TALON IMAC resin (N-terminal 6X-His on Fdh3A), eluted with 300 mM imidazole, then SEC on Superose 6 Increase 10/300 in buffer A (0.1 M Tris-HCl pH 8.0, 150 mM NaCl, 19 mM KCl, 10% glycerol); bands of the SDS-PAGE identified by MALDI mass spectrometry; anaerobic chamber
Fdh3A = target: T1, Fdh3A (Thermococcus onnurineus, UniProt B6YU84); assay: formate-dependent methyl viologen reduction, absorbance at […] nm; type: biochemical; conditions: 100 mM sodium formate, 2 mM methyl viologen, 0.1 M Tris-HCl pH 8.5, 10% glycerol, 2 mM DTT; anaerobic; turnover only
T1 construct: gene TON_0539; Catalytic subunit alone; N-terminal 6xHis tag; expressed in T. onnurineus MF02 (parent 156T, fdh3 region deleted); one-step TALON IMAC
T1 sequence (B6YU84 1-680): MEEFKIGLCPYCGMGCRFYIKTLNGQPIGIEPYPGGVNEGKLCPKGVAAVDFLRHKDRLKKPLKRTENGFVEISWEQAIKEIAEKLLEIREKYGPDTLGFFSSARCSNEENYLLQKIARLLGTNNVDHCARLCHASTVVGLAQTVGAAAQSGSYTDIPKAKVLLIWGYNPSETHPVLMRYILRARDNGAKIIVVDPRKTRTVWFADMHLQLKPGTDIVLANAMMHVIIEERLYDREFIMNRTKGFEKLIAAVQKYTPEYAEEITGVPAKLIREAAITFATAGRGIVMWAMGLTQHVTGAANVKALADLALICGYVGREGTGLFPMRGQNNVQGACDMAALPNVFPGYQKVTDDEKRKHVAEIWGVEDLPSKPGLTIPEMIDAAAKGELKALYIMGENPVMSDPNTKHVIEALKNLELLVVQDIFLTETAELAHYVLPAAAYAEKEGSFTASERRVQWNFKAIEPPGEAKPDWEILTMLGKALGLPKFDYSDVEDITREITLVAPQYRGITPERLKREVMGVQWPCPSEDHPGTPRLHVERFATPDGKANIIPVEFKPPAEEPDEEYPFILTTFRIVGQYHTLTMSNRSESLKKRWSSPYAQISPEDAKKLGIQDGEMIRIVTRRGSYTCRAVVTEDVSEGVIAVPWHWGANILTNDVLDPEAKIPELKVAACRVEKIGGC

[2] = target: Fdh3A, formate dehydrogenase large (catalytic) subunit (TON_0539) of Thermococcus onnurineus NA1, with N-terminal 6X-His tag (Thermococcus onnurineus NA1)
purified protein [3] = substrate: NC(=O)c1ccc[n+]([C@@H]2O[C@H](COP(=O)(O)OP(=O)(O)OC[C@H]3O[C@@H](n4cnc5c(N)ncnc54)[C@H](OP(=O)(O)O)[C@@H]3O)[C@@H](O)[C@H]2O)c1; assay: purified protein; type: biochemical, Thermococcus onnurineus; conditions: co-substrate formate (100 mM in the standard assay), 0.1 M Tris-HCl pH 8.5, 10% glycerol, 2 mM DTT, anaerobic, optimum 80 °C (temperature of Km assay not stated), site on Fdh3B (TON_0542) by model
purified protein [4] = substrate: O=CO; assay: purified protein; conditions: NADP+ as electron acceptor (2 mM in the standard assay), 0.1 M Tris-HCl pH 8.5, 10% glycerol, 2 mM DTT, anaerobic, optimum 80 °C (temperature of Km assay not stated), catalytic site on Fdh3A (TON_0539)

stoichiometry N [1]: 1
Molecule: Fdh3B, NAD(P)-binding protein (TON_0542) of Thermococcus onnurineus NA1 (natural protein)

Molecule: C[n+]1ccc(-c2cc[n+](C)cc2)cc1 [methyl viologen]
formate-dependent methyl viologen reduction, absorbance at 578 nm (Fdh3A): The specific activities of formate-dependent methyl viologen reduction of Fdh3 and Fdh3A were similar

formate-dependent ferredoxin-reducing activity of Fdh3A alone (purified from strain MF02), based on the same methyl viologen activity [2]: 16.8 mU/U | formate-dependent ferredoxin-reducing activity of the purified Fdh3 complex (Fdh3A with Fdh3B, Fdh3G1 and Fdh3G2), based on the same methyl viologen activity [2]: 17.9 mU/U
Molecule: ferredoxin Fd0317 (TON_0317) of Thermococcus onnurineus NA1 (from UniProt B6YTB5 1-67) (natural protein)

Molecule: O=CO [formate]
formate-dependent methyl viologen reduction, absorbance at 578 nm (Fdh3A): The specific activities of formate-dependent methyl viologen reduction of Fdh3 and Fdh3A were similar

B1: Fdh3 (Thermococcus onnurineus NA1) (protein)
chain 1: MEEFKIGLCPYCGMGCRFYIKTLNGQPIGIEPYPGGVNEGKLCPKGVAAVDFLRHKDRLKKPLKRTENGFVEISWEQAIKEIAEKLLEIREKYGPDTLGFFSSARCSNEENYLLQKIARLLGTNNVDHCARLCHASTVVGLAQTVGAAAQSGSYTDIPKAKVLLIWGYNPSETHPVLMRYILRARDNGAKIIVVDPRKTRTVWFADMHLQLKPGTDIVLANAMMHVIIEERLYDREFIMNRTKGFEKLIAAVQKYTPEYAEEITGVPAKLIREAAITFATAGRGIVMWAMGLTQHVTGAANVKALADLALICGYVGREGTGLFPMRGQNNVQGACDMAALPNVFPGYQKVTDDEKRKHVAEIWGVEDLPSKPGLTIPEMIDAAAKGELKALYIMGENPVMSDPNTKHVIEALKNLELLVVQDIFLTETAELAHYVLPAAAYAEKEGSFTASERRVQWNFKAIEPPGEAKPDWEILTMLGKALGLPKFDYSDVEDITREITLVAPQYRGITPERLKREVMGVQWPCPSEDHPGTPRLHVERFATPDGKANIIPVEFKPPAEEPDEEYPFILTTFRIVGQYHTLTMSNRSESLKKRWSSPYAQISPEDAKKLGIQDGEMIRIVTRRGSYTCRAVVTEDVSEGVIAVPWHWGANILTNDVLDPEAKIPELKVAACRVEKIGGC
chain 2: MSGMRFAFLCRERPEPTGKKIAVIGAGPAGLAATGYLVCQGHEVHVYDKLPEPGGLMLFGIPEFRIPIYRVREGYEELERVYNVKFFTRTKVYFGNLEGESGDEFVENRVDFKELVEKYDAVLIATGTWKCWIPNIEGAELEGVFPALEYLFRIKSAKLGHMDWGKVTPVEGKKVLVVGAGHTAVDAALESVLLGADKVYLSYRRTIREAPAGAYEINLLQQRGVKWLERTMPVRIIGENGKVRAVELVKTKLSEPDESGRRRPVPIEGSNFQIDVDYVIFAVGQSPTPPFAEEIDIAVDKKGRIVVDNRHMTSREGVFAAGDVVLGPSKVGKAVKDGLYAAEAMHMWLMGR
notes: Tungsten-containing cytoplasmic complex; N-terminal 6xHis tag on TON_0539; overexpressed in T. onnurineus MF01 (fdh1 fdh2 fdh3 deleted), TALON IMAC and SEC; 524 kDa by SEC; TON_0541 not detected
Km (purified protein [3]): 0.040 mM | Km (purified protein [4]): 13.5 mM
